Data on one molecule can be found in patent US7067277B1, “Chimeric G proteins and uses thereof” (H. Lundbeck A/S, priority 1999, dated 2006).

The target of one test is h 5HT4 (Homo sapiens, UniProt Q13639). Description: Calcium mobilization (FLIPR, Fluo-3) in transfected COS-7 cells. It counts as cell-based. As to conditions: h 5HT4 + chimera in COS-7; agonist 5HT, max 100 μM. On the procedure: (§1) COS-7 cells were cultured in 225 cm^2 flasks in Dulbecco's Modified Eagle Medium (DMEM) with supplements (10% bovine calf serum, 4 mM glutamine, 100 units/ml penicillin and 100 μg/ml streptomycin) at 37° C., 5% CO2. Stock plates of COS-7 cells were trypsinized and split 1:6 every 3–4 days.
h 5HT4, sequence (Q13639 whole entry): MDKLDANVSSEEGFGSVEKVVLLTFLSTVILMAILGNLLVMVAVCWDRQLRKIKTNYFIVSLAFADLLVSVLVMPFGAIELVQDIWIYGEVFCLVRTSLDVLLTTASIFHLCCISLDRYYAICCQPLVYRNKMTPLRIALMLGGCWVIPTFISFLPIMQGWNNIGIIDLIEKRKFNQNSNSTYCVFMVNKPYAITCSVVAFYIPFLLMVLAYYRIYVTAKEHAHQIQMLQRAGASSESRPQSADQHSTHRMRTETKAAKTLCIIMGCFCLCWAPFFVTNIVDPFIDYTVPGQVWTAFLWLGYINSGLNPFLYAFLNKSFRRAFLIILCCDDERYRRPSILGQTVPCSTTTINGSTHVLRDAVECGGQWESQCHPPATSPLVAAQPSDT
(§2) GPCR and chimeric G protein cDNAs were transiently transfected into COS-7 cells in 150 cm^2 flasks by the DEAE-dextran method (Cullen, 1987), using a total of 20 μg of DNA/˜7×10^6 cells. For evaluating the function of a single chimeric G protein, the standard cDNA transfection ratio was 1:1 (10 μg GPCR cDNA and 10 μg chimeric G protein cDNA). For evaluating the function of a mixture of chimeric G proteins, the standard cDNA transfection ratio was 8:1:1 (16 μg GPCR cDNA, 2 μg Gαq/z cDNA, 2 μg Gαq/s cDNA).
(§3) Twenty four hours after transient transfection, COS-7 cells were seeded into 96-well black wall microtiter plates coated with poly-D-lysine for assay the following day. Just prior to assay, culture medium was aspirated and cells were dye-loaded with 4 μM Fluo-3/0.01% pluronic acid in assay buffer composed of Hank's Balanced Salt Solution (138 mM NaCl, 5 mM KCl, 1.3 mM CaCl2, 0.5 mM MgCl2, 0.4 mM MgSO4, 0.3 mM KH2PO4, 0.3 mM Na2HPO4, 5.6 mM glucose) plus 20 mM HEPES (pH 7.4), 0.1% BSA and 2.5 mM probenicid (100 μl/well) for 1 hour in 5% CO2 at 37° C. After excess dye was discarded, cells were washed in assay buffer and layered with a final volume equal to 100 μl/well. Basal fluorescence was monitored in a fluorometric imaging plate reader (FLIPR™, Molecular Devices) with an excitation wavelength of 488 nm and an emission range of 500 to 560 nm. Laser excitation energy was adjusted so that basal fluorescence readings were approximately 10,000 relative fluorescent units. Cells were stimulated with agonists diluted in assay buffer (50 μl), and relative fluorescent units were measured at defined intervals (exposure=0.4 sec) over a 3 min period at room temperature. Maximum change in fluorescence was calculated for each well. Concentration-response curves derived from the maximum change in fluorescence were analyzed by nonlinear regression (Hill equation).

The target of a further test is h β2 adr (Homo sapiens, UniProt P07550). The description is as above. As to conditions: h β2 adr + chimera in COS-7; agonist NE, max 100 μM. It counts as cell-based. On the procedure: as §1, §2, §3
The next test has as its target h GLP-1 (Homo sapiens, UniProt P43220). Described as above. Type of test: cell-based. The settings on record: h GLP-1 + chimera in COS-7; agonist GLP-1, max 10 μM. On the procedure: as §1, §2, §3
The next test has as its target h 5HT7 (Homo sapiens, UniProt P34969). The description is as above. It counts as cell-based. As to conditions: h 5HT7 + chimera in COS-7; agonist 5HT, max 100 μM. On the procedure: as §1, §2, §3
Another test addresses h D5 (Homo sapiens, UniProt P21918). Described as above. Type of test: cell-based. The settings on record: h D5 + chimera in COS-7; agonist DA, max 100 μM. On the procedure:
as §1, §2, §3

The next test has as its target h 5HT6 (Homo sapiens, UniProt P50406). Described as above. It counts as cell-based. The settings on record: h 5HT6 + chimera in COS-7; agonist 5HT, max 100 μM. On the procedure: as §1, §2, §3
For another test, the target named is T1, h D1 (Homo sapiens, UniProt P21728).
T1 construct: expressed in transfected cells; host or cells: COS-7
T1 sequence (P21728 whole entry): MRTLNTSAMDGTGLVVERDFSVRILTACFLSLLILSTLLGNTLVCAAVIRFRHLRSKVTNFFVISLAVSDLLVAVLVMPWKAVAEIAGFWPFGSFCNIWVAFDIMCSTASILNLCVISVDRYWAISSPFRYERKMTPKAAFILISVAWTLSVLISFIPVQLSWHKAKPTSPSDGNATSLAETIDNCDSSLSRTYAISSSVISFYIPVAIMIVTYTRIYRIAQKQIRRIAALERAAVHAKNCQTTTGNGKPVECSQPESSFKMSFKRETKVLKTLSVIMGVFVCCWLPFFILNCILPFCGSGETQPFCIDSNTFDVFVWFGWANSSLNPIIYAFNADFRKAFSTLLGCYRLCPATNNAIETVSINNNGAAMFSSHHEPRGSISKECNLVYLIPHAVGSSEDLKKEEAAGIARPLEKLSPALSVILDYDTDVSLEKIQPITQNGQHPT
The test is described as above. It counts as cell-based. As to conditions: h D1 + chimera in COS-7; agonist DA, max 100 μM. On the procedure:
as §1
For evaluating the function of a single chimeric G protein, the standard cDNA transfection ratio was 1:1 (10 μg GPCR cDNA and 10 μg chimeric G protein cDNA). For evaluating the function of a mixture of chimeric G proteins, the standard cDNA transfection ratio was 8:1:1 (16 μg GPCR cDNA, 2 μg Gαq/z cDNA, 2 μg Gαq/s cDNA).
as §3, with “Just prior to assay, culture medium was aspirated and cells were dye-loaded with 4 μM Fluo-3/0.01% pluronic acid in assay buffer composed of Hank's Balanced Salt Solution (138 mM NaCl, 5 mM KCl, 1.3 mM CaCl2, 0.5 mM MgCl2, 0.4 mM MgSO4, 0.3 mM KH2PO4, 0.3 mM Na2HPO4, 5.6 mM glucose) plus 20 mM HEPES (pH 7.4), 0.1% BSA and 2.5 mM probenicid (100 μl/well) for 1 hour in 5% CO2 at 37° C.” left out

The subject of test [1] is panel of 7 Gαs-coupling receptors. Description: Detection rate in COS-7 calcium mobilization over Gαs-coupling GPCR. Type of test: cell-based, human. As to conditions: COS-7, stimulated with appropriate agonists. The protocol:
as §1
GPCR and chimeric G protein cDNAs were transiently transfected into COS-7 cells in 150 cm^2 flasks by the DEAE-dextran method (Cullen, 1987), using a total of 20 μg of DNA/˜7×10^6 cells. For evaluating the function of a single chimeric G protein, the standard cDNA transfection ratio was 1:1 (10 μg GPCR cDNA and 10 μg chimeric G protein cDNA). […]
Twenty four hours after transient transfection, COS-7 cells were seeded into 96-well black wall microtiter plates coated with poly-D-lysine for assay the following day. […] Basal fluorescence was monitored in a fluorometric imaging plate reader (FLIPR™, Molecular Devices) with an excitation wavelength of 488 nm and an emission range of 500 to 560 nm. Laser excitation energy was adjusted so that basal fluorescence readings were approximately 10,000 relative fluorescent units. Cells were stimulated with agonists diluted in assay buffer (50 μl), and relative fluorescent units were measured at defined intervals (exposure=0.4 sec) over a 3 min period at room temperature. Maximum change in fluorescence was calculated for each well. […]
On the technique in general: Calcium flux is commonly read through the fluorescence of an indicator in the cells.

h 5HT6, sequence (P50406 whole entry): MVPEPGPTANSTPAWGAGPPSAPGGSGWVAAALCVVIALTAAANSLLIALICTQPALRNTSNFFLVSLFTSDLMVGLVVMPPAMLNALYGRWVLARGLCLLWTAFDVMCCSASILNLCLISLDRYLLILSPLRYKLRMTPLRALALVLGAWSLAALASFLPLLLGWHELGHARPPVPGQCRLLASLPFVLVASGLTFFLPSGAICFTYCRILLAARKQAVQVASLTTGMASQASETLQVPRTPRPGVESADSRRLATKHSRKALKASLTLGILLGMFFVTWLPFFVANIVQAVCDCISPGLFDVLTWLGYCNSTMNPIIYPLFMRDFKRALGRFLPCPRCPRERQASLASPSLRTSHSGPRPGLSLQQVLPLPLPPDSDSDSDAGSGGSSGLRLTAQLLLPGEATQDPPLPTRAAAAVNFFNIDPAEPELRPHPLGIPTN
h D5, sequence (P21918 whole entry): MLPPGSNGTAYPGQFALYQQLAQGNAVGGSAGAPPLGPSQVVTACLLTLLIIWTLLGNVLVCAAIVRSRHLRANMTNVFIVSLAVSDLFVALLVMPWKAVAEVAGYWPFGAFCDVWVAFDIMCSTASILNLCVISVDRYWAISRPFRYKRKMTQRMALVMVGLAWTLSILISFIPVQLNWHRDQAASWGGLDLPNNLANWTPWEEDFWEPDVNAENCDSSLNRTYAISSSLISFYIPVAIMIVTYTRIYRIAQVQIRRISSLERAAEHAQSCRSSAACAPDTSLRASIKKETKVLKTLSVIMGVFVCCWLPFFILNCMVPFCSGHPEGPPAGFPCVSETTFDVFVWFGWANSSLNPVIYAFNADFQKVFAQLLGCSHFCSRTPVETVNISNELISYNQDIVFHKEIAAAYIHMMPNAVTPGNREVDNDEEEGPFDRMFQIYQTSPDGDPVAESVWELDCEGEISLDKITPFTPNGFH
h GLP-1, sequence (P43220 24-463): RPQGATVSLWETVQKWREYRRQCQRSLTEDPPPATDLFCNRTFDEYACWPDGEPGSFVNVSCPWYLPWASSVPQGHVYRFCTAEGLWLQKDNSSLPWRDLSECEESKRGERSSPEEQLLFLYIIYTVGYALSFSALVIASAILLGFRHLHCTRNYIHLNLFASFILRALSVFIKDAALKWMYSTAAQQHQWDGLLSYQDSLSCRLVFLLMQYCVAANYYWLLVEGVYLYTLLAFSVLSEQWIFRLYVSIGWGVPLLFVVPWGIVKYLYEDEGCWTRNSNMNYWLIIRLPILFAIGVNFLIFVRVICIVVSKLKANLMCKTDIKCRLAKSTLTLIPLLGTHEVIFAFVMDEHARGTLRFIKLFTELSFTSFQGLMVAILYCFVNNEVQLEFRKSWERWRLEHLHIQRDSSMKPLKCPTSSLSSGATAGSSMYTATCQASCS
h 5HT7, sequence (P34969 whole entry): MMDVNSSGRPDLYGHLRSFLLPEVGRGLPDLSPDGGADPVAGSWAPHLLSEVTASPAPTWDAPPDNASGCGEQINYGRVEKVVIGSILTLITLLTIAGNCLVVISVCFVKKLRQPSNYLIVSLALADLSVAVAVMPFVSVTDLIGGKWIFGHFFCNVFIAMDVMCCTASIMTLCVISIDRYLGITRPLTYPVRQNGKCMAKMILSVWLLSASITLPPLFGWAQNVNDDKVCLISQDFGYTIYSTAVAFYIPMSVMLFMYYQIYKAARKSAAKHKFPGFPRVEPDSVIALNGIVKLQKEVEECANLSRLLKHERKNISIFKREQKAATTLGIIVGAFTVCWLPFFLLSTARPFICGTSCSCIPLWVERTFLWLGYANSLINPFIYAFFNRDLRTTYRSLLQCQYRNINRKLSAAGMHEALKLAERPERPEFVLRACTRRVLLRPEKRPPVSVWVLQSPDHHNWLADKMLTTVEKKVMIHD

B1: cGαq/s9: C. elegans Gαq backbone with 9 C-terminal amino acids of Gαs (SEQ ID NO: 3) (protein)
chain: MACCLSEEAREQKRINQEIEKQLQRDKRNARRELKLLLLGTGESGKSTFIKQMRIIHGQGYSEEDKRAHIRLVYQNVFMAIQSMIRAMDTLDIKFGNESEELQEKAAVVREVDFESVTSFEEPYVSYIKELWEDSGIQECYDRRREYQLTDSAKYYLSDLRRLAVPDYLPTEQDILRVRVPTTGIIEYPFDLEQIIFRMVDVGGQRSERRKWIHCFENVTSIMFLVALSEYDQVLVECDNENRMEESKALFRTIITYPWFTNSSVILFLNKKDLLEEKILYSHLADYFPEYDGPPRDPIAAREFILKMFVDLNPDADKIIYSHFTCATDTENIRFVFAAVKDTILQMHLRQYELL
modifications: C. elegans
Turning to B1, the “MAXIMAL SIGNAL (FLUORESCENCE UNITS)” value is on record as 1701 fluorescence units with h 5HT4; 3106 fluorescence units in the test with h β2 adr; 2461 fluorescence units in the test with h GLP-1; 387 fluorescence units with h 5HT7; 1870 fluorescence units with h D5; 1639 fluorescence units with h 5HT6. Further, in the test with h D1, the “MAXIMAL SIGNAL (FLUORESCENCE UNITS)” value turned out to be 8692 fluorescence units. Moreover, the “Gαs-coupling receptors generating positive responses (>500 fluorescence units) / receptors tested” value in test [1] is listed as 6/7. Also, in test [1], the “percent of Gαs-coupling receptors generating positive responses (>500 fluorescence units)” value stood at 81%.
